{"source": "patent US20260217863", "key": {"[1]": {"target": "T1, Fv-2, expressed soluble Fv antibody of clone 23 (His-tag-TdTomato-VH)", "T1 chain": "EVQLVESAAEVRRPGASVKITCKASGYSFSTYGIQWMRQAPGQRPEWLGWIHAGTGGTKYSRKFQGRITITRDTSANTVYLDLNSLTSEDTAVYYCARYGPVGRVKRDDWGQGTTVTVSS"}, "[2]": {"target": "Fv-3, expressed soluble Fv antibody of clone 39 (His-tag-TdTomato-VH)"}, "[3]": {"target": "T2, Fv-1, expressed soluble Fv antibody of clone 5 (His-tag-TdTomato-VH)", "T2 chain": "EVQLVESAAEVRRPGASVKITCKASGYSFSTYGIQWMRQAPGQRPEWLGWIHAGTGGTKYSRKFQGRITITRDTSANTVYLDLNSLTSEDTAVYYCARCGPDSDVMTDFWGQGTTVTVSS"}}, "data": [{"protein": "Ribonuclease A (Type II-A) from bovine pancreas (protein) KETAAAKFERQHMDSSTSAASSSNYCNQMMKSRNLTKDRCKPVNTFVHESLADVQAVCSQKNVACKNGQTNCYQSYSTMSITDCRETGSSKYPNCAYKTTQANKHIIVACEGNPYVPVHFDASV", "values": [{"measurement": "cleavage of HeLa total RNA by RNase A (0.7 µg/ml), agarose gel, Fv antibody at 10 µM", "setting": "[1]", "value": "it was observed that the cleavage reaction of RNase A was completely inhibited"}, {"measurement": "stated: RNase A removed from the solution by Fv-2-beads (RNA cleavage read on an agarose gel)", "setting": "[1]", "value": "After Fv-Bead treatment: all four lanes (+ to ++++, + : 250 ng Fv-2-bead, RNase A 10 ng) keep both RNA bands (in the dashed box at about 1000-1500 bp and near 600 bp) like lane 0, marked 'RNA cleavage inhibition'. Before treatment (no bead) the four RNase A lanes have no band in the box."}, {"measurement": "cleavage of HeLa total RNA by RNase A (0.7 µg/ml), agarose gel, Fv antibody at 10 µM", "setting": "[2]", "value": "it was observed that the cleavage reaction of RNase A was completely inhibited"}, {"measurement": "cleavage of HeLa total RNA by RNase A (0.7 µg/ml), agarose gel, Fv antibody at 10 µM", "setting": "[3]", "value": "it was observed that the cleavage reaction of RNase A was completely inhibited"}, {"measurement": "stated: RNase A removed from the solution by Fv-1-beads (RNA cleavage read on an agarose gel)", "setting": "[3]", "value": "After Fv-Bead treatment: all four lanes (+ to ++++, + : 250 ng Fv-1-bead, RNase A 10 ng) keep faint RNA in the dashed box at about 1000-1500 bp like lane 0, marked 'RNA cleavage inhibition'. Before treatment (no bead) the four RNase A lanes show only a smear near 250 bp."}]}]}
